Measurements: patent US9938510B2, “Photobacterium sp. alpha-2-6-sialyltransferase variants” (The Regents of the University of California, priority 2014, dated 2018)
Changes are numbered by the printed parent chain. In names and notes the source's numbering stands.

B1: Psp26ST(15-501)-His6: recombinant Photobacterium sp. JH-ISH-224 α2-6-sialyltransferase, residues 15-501, C-terminal His6, wild-type; SEQ ID NO: 23 (protein)
chain: CNNSEENTQSIIKNDINKTIIDEEYVNLEPINQSNISFTKHSWVQTCGTQQLLTEQNKESISLSVVAPRLDDDEKYCFDFNGVSNKGEKYITKVTLNVVAPSLEVYVDHASLPTLQQLMDIIKSEEENPTAQRYIAWGRIVPTDEQMKELNITSFALINNHTPADLVQEIVKQAQTKHRLNVKLSSNTAHSFDNLVPILKELNSFNNVTVTNIDLYDDGSAEYVNLYNWRDTLNKTDNLKIGKDYLEDVINGINEDTSNTGTSSVYNWQKLYPANYHFLRKDYLTLEPSLHELRDYIGDSLKQMQWDGFKKFNSKQQELFLSIVNFDKQKLQNEYNSSNLPNFVFTGTTVWAGNHEREYYAKQQINVINNAINESSPHYLGNSYDLFFKGHPGGGIINTLIMQNYPSMVDIPSKISFEVLMMTDMLPDAVAGIASSLYFTIPAEKIKFIVFTSTETITDRETALRSPLVQVMIKLGIVKEENVLFWA
modifications: C-terminal His6; Synthetic Psp26ST(15-501) WILD TYPE
B2: A366G: Photobacterium sp. JH-ISH-224 α2-6-sialyltransferase residues 15-501, A366G point mutation, C-terminal His6; SEQ ID NO: 2 (protein)
chain: B1 chain with A352G
modifications: C-terminal His6; Synthetic Psp26ST(15-501) A366G

Experiments:
[1] = Sialyltransferase activity assay, GalNAcαSer as acceptor (HPLC); type: biochemical; settings: 1 equivalent CMP-Neu5Ac was used; no NmCSS
Procedure: When LacβMU was used as an acceptor, the assay was performed in duplicate in 10 μL of Tris-HCl buffer (100 mM, pH 8.0) containing CMP-Neu5Ac (1 mM), LacβMU (1 mM), MgCl2 (20 mM), wild-type Psp2,6ST(15-501)-His6 or its mutant (0.3 μM). When an α-GalNAc-terminated acceptor was used, the assay was performed in duplicate in 10 μL of Tris-HCl buffer (100 mM, pH 8.0 for GalNAcαSer/Thr) or NaOAc-HOAc (100 mM, […]), MgCl2 (20 mM), wild-type Psp2,6ST(15-501)-His6 or its mutant (3.0 μM). Reactions were allowed to proceed at 20° C. for 20 min and stopped by adding 10 μL of cold ethanol. The analysis of sialylated product conversion was performed using the HPLC system as described above for sialyltransferase activity assay. The 4-methylumbelliferone (MU)-labeled fluorescent acceptor and the product formed were detected with excitation at 325 nm and emission at 372 nm. The 2-aminobenzoic acid (2AA)-labeled fluorescent acceptors and the products formed were detected with excitation at 315 nm and emission at 400 nm. The 9-fluorenylmethylcarbamate (Fmoc)-labeled fluorescent acceptors and the products formed were detected with excitation at 262 nm and emission at 313 nm.

[2] = One-pot two-enzyme (OP2E) sialylation with NmCSS, GalNAcαSer as acceptor; type: biochemical; settings: 1 equivalent of Neu5Ac and 1.5 equivalents of CTP
Source text: (§1) White bars: GalNAcαSer was used as an acceptor with 1 equivalent of Neu5Ac and 1.5 equivalents of CTP. Grey bars: GalNAcαSer was used as an acceptor with 2.5 equivalents of Neu5Ac and 5.0 equivalents of CTP. Black bars: GalNAcαThr was used as an acceptor with 2.5 equivalents of Neu5Ac and 5.0 equivalents of CTP.
In this system, CTP and Neu5Ac were used by NmCSS for the formation of CMP-Neu5Ac in situ (see also, Yu and Chen, et al. Bioorg. Med. Chem. 2004, 12, 6427-6435). CMP-Neu5Ac was used as the donor substrate for Psp26ST(15-501)-His6 or its mutants. […] For example, using 1 equivalent of Neu5Ac and 1.5 equivalents of CTP in the one-pot two-enzyme (OP2E) reaction (white bars in FIG. 6) improved the GalNAcαSer α2-6-sialylation reaction yields from less than 6% (1 equivalent CMP-Neu5Ac was used) (FIG. 5B) to 32-51% for W365A, W365G, W365S mutants. Similarly, the OP2E reaction improved the GalNAcαSer α2-6-sialylation reaction yields from 40% and 37% to 75% and 67% for A366G mutant and the wild-type enzyme, respectively. Increasing the concentrations of Neu5Ac and CTP to 2.5 and 5.0 equivalents further improved the reaction yields to more than 67% for Psp26ST(15-501)-His6 and its mutants (black bars in FIG. 6). […]

[3] = One-pot two-enzyme (OP2E) sialylation with NmCSS, GalNAcαThr as acceptor; type: biochemical; settings: 2.5 equivalents of Neu5Ac and 5.0 equivalents of CTP
Source text: as §1
In this system, CTP and Neu5Ac were used by NmCSS for the formation of CMP-Neu5Ac in situ (see also, Yu and Chen, et al. Bioorg. Med. Chem. 2004, 12, 6427-6435). CMP-Neu5Ac was used as the donor substrate for Psp26ST(15-501)-His6 or its mutants. […] For example, using 1 equivalent of Neu5Ac and 1.5 equivalents of CTP in the one-pot two-enzyme (OP2E) reaction (white bars in FIG. 6) improved the GalNAcαSer α2-6-sialylation reaction yields from less than 6% (1 equivalent CMP-Neu5Ac was used) (FIG. 5B) to 32-51% for W365A, W365G, W365S mutants. Similarly, the OP2E reaction improved the GalNAcαSer α2-6-sialylation reaction yields from 40% and 37% to 75% and 67% for A366G mutant and the wild-type enzyme, respectively. Increasing the concentrations of Neu5Ac and CTP to 2.5 and 5.0 equivalents further improved the reaction yields to more than 67% for Psp26ST(15-501)-His6 and its mutants ([…]). […] Therefore, in situ generation of CMP-Neu5Ac, the sugar nucleotide donor for sialyltransferases, was proven an efficient method to enhance the yields for sialylation reactions catalyzed not only by the wild-type enzymes but also sialyltransferase mutants.

[4] = Expression and Ni2+-NTA purification of soluble recombinant protein; SDS-PAGE of lysates; parameters: species or system Escherichia coli; settings: for expression level, purified by Ni2+-NTA column: per liter of Escherichia coli culture, repeated expression in duplicates or triplicates
Procedure: The plasmids containing mutant genes were transformed into Escherichia coli BL21 (DE3). The Escherichia coli cells were cultured in LB-rich media (10 g L^−1 tryptone, 5 g L^−1 yeast extract, and 10 g L^−1 NaCl) supplemented with ampicillin (100 μg mL^−1). Overexpression of the mutants was achieved by adding 0.3 mM of isopropyl-1-thio-β-D-galactopyranoside (IPTG) to the Escherichia coli culture when its OD600 nm reached 0.8. The induced culture was incubated at 20° C. for 20 h with vigorous shaking at 250 rpm in a C25KC incubator shaker (New Brunswick Scientific, Edison, N.J.). His6-tagged mutant proteins were purified from the cell lysate. To obtain cell lysate, the cell pellet harvested by centrifugation at 4000 rpm for 2 h was resuspended in 20 mL (for cells obtained from one liter culture) of lysis buffer (pH 8.0, 100 mM Tris-HCl containing 0.1% Triton X-100). Lysozyme (50 μg mL^−1) and DNaseI (3 μg mL^−1) were added to the resuspended cells followed by shaking at 37° C. for 60 min. The lysate was obtained as the supernatant after centrifugation at 11,000 rpm for 20 min. Purification of His6-tagged proteins from the lysate was achieved using 10 mL column packed with Ni^2+-NTA agarose. The column was pre-equilibrated with 8 column volumes of binding buffer (5 mM imidazole, 0.5 M NaCl, 50 mM Tris-HCl pH 7.5). After loading the sample, the column was washed with 8 column volumes of the binding and 8 column volumes of washing buffer (20 mM imidazole, 0.5 M NaCl, 50 mM Tris-HCl pH 7.5). Protein was eluted using 8 column volumes of the elute buffer (200 mM imidazole, 0.5 M NaCl, 50 mM Tris-HCl pH 7.5). The fractions containing the purified enzyme were collected and stored at 4° C. Protein concentrations were quantified by bicinchoninic acid (BCA) protein assay kit according to manufacturer's instruction using bovine serum albumin (BSA) as the protein standard. The wild-type enzyme and A366G mutant were expressed, purified, and quantified in duplicates or triplets for at least three times. […]

| Molecule | GalNAcαSer α2-6-sialylation reaction yield, sialyltransferase alone (FIG. 5B) [1] [%] | GalNAcαSer α2-6-sialylation reaction yield, OP2E [2] [%] | yield of Neu5Acα2-6GalNAcαThr from GalNAcαThr, OP2E [3] [%] | expression level, purified by Ni2+-NTA column [4] | expression level ([4]; general description) [mg/L] |
| --- | --- | --- | --- | --- | --- |
| B1 | 37 | 67 | 88 | 18-40 mg per liter | – |
| B2 | 40 | 75 | 93 | 72-110 mg per liter | 72 to 110 |
